Measured values from patent US20040138431A1.

Legend:
[1] = target: P75 and trkA receptors on rat PC-12 cell membranes (rat) (UniProt P35739); assay: cell-based or functional assay
[2] = target: P75 and trkA receptors on rat PC-12 cell membranes (rat) (UniProt P35739); assay: radioreceptor assay, competitive binding against NGF standard on rat PC-12 cell membranes

P75 and trkA receptors on rat PC-12 cell membranes (rat), sequence (P35739 33-799, chain 1 of 2): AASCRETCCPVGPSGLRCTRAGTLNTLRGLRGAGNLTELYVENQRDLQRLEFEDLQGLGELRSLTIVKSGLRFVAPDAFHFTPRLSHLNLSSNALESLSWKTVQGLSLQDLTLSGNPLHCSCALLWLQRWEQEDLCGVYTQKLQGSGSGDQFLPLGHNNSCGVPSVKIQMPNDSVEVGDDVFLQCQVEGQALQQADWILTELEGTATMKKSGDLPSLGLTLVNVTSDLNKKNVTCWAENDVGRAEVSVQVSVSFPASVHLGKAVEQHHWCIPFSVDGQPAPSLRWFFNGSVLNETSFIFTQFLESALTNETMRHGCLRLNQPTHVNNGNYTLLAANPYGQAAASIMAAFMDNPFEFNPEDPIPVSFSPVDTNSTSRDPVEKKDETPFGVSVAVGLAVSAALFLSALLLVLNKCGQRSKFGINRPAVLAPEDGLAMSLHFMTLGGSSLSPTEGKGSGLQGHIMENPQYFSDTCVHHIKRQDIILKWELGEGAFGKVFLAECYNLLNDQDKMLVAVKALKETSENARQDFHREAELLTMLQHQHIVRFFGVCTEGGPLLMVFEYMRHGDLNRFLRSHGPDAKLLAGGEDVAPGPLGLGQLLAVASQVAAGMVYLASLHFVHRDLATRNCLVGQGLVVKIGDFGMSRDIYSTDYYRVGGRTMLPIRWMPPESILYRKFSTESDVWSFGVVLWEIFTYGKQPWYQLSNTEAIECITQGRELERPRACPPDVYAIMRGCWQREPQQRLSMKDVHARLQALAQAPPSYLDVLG
P75 and trkA receptors on rat PC-12 cell membranes (rat), sequence (P07174 30-425, chain 2 of 2, further chain): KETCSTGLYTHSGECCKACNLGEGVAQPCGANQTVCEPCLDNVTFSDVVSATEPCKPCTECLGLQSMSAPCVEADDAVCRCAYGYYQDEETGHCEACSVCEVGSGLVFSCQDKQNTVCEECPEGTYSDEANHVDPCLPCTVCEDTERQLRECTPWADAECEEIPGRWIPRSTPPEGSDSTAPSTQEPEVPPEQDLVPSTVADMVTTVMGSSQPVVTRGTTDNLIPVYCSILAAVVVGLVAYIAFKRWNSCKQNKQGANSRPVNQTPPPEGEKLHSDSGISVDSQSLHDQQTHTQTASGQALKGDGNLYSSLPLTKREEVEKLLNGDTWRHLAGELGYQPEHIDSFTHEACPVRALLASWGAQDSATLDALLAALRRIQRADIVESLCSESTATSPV
120/120 rhNGF homodimer (NGF-120, full-length 120/120 nerve growth factor), sequence (P01138 122-241 limits assumed): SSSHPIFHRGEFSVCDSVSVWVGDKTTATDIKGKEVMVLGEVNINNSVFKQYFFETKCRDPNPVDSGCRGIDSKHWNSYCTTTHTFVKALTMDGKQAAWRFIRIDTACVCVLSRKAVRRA

- PC-12 based assay, activity relative to the 118/118 form [1]: 60%
- percent as active as the 118/118 species [2]: 80 to 90%
Substance: 120/120 rhNGF homodimer (NGF-120, full-length 120/120 nerve growth factor) (from UniProt P01138 122-241) (ligand)
